Target: T1, WT 4Ig-B7-H3-meGFP (and WT 4Ig-B7-H3-mCherry as the second copy) (human), Q5ZPR3
T1 chain: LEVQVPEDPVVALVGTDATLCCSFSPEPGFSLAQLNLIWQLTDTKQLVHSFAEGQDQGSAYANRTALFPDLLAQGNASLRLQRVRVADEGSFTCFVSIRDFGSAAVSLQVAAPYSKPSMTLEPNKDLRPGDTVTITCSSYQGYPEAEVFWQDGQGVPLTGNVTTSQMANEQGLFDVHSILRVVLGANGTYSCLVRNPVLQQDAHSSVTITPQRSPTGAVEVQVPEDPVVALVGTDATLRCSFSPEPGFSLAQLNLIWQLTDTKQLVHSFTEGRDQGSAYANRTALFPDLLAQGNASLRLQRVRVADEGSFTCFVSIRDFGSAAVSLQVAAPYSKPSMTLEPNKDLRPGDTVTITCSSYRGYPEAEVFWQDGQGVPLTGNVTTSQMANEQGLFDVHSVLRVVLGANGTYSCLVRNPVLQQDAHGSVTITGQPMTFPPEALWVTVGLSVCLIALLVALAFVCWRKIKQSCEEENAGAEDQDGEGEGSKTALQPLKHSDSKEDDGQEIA
Test: FRET or BRET
Details: remark: other sources report otherwise

B1: WT 4Ig-B7-H3-meGFP (and WT 4Ig-B7-H3-mCherry as the second copy), Q5ZPR3 29-534 (natural protein)
chain: LEVQVPEDPVVALVGTDATLCCSFSPEPGFSLAQLNLIWQLTDTKQLVHSFAEGQDQGSAYANRTALFPDLLAQGNASLRLQRVRVADEGSFTCFVSIRDFGSAAVSLQVAAPYSKPSMTLEPNKDLRPGDTVTITCSSYQGYPEAEVFWQDGQGVPLTGNVTTSQMANEQGLFDVHSILRVVLGANGTYSCLVRNPVLQQDAHSSVTITPQRSPTGAVEVQVPEDPVVALVGTDATLRCSFSPEPGFSLAQLNLIWQLTDTKQLVHSFTEGRDQGSAYANRTALFPDLLAQGNASLRLQRVRVADEGSFTCFVSIRDFGSAAVSLQVAAPYSKPSMTLEPNKDLRPGDTVTITCSSYRGYPEAEVFWQDGQGVPLTGNVTTSQMANEQGLFDVHSVLRVVLGANGTYSCLVRNPVLQQDAHGSVTITGQPMTFPPEALWVTVGLSVCLIALLVALAFVCWRKIKQSCEEENAGAEDQDGEGEGSKTALQPLKHSDSKEDDGQEIA
- abundance of dimeric complexes (1.3 ns lifetime population): 65%
- dimeric abundance (with MBCD 0.1 ug, 10 minutes): 26%
- dimeric abundance (without MBCD): 48%
- dimeric lifetime abundance (with Vector-mCherry): 56%
